Key:
Bcl-xL = molecular target: T1, Bcl-xL (Homo sapiens, UniProt Q07817); experiment: LUMIER full-length protein interaction; assay type: binding; settings: LUMIER results for Bcl-xL, Z-score of the interaction relative to the Gaussian fit of the data
T1 construct: myc-Bcl-xL SPOT array & FP; made in house
Experimental: (§1) The LUMIER assay was carried out as previously described with the following modifications. A stable cell line expressing receptor tagged on the N-terminus with Nanoluc luciferase was created (the prey). […] Each bait construct was transfected into the receptor-luciferase cells in a 96-well format and after 48 hours the cells were lysed and transferred to 384-well plates coated with anti-FLAG. After incubation and washing, luminescence was measured to quantify how much receptor-luciferase was captured by the bait protein. Anti-Flag ELISA signal was used to exclude bait proteins that were not expressed. The experiment was carried out two times, each in duplicate.

Mcl-1 = molecular target: T2, Mcl-1 (Homo sapiens, UniProt Q07820); experiment: LUMIER full-length protein interaction; assay type: binding; settings: LUMIER results for Mcl-1, Z-score relative to Gaussian fit of the data
T2 construct: myc-Mcl-1 SPOT array & FP; made in house
T2 sequence (Q07820 with tags, fused parts or gaps): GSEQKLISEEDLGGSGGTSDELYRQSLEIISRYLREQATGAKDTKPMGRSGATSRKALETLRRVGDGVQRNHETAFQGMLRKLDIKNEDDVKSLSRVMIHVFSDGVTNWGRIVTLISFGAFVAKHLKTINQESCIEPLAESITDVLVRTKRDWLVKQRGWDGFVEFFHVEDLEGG
Experimental: as §1

T1 sequence (Q07817 with tags, fused parts or gaps): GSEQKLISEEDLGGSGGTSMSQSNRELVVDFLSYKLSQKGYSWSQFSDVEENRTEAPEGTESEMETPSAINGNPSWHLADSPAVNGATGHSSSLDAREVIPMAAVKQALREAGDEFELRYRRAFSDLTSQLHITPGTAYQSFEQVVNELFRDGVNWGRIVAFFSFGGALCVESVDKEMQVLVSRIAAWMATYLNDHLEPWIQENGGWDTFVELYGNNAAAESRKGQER

z-score 1.1 (Bcl-xL; experiment 1, duplicate 1): 11.5243 | z-score 1.2 (Bcl-xL; experiment 1, duplicate 2): 0.8005 | z-score 2.1 (Bcl-xL; experiment 2, duplicate 1): -0.1835 | z-score 2.2 (Bcl-xL; experiment 2, duplicate 2): 0.205 | z-score 1.2 (Mcl-1; experiment 1, duplicate 2): 0.31 | z-score 2.1 (Mcl-1; experiment 2, duplicate 1): 0.117 | z-score 2.2 (Mcl-1; experiment 2, duplicate 2): 0.04852
B1: MTA2 (protein, UniProt O94776 1-668, looked up)
Metastasis-associated protein …: MAANMYRVGDYVYFENSSSNPYLVRRIEELNKTANGNVEAKVVCLFRRRDISSSLNSLADSNAREFEEESKQPGVSEQQRHQLKHRELFLSRQFESLPATHIRGKCSVTLLNETDILSQYLEKEDCFFYSLVFDPVQKTLLADQGEIRVGCKYQAEIPDRLVEGESDNRNQQKMEMKVWDPDNPLTDRQIDQFLVVARAVGTFARALDCSSSIRQPSLHMSAAAASRDITLFHAMDTLQRNGYDLAKAMSTLVPQGGPVLCRDEMEEWSASEAMLFEEALEKYGKDFNDIRQDFLPWKSLASIVQFYYMWKTTDRYIQQKRLKAAEADSKLKQVYIPTYTKPNPNQIISVGSKPGMNGAGFQKGLTCESCHTTQSAQWYAWGPPNMQCRLCASCWIYWKKYGGLKTPTQLEGATRGTTEPHSRGHLSRPEAQSLSPYTTSANRAKLLAKNRQTFLLQTTKLTRLARRMCRDLLQPRRAARRPYAPINANAIKAECSIRLPKAAKTPLKIHPLVRLPLATIVKDLVAQAPLKPKTPRGTKTPINRNQLSQNRGLGGIMVKRAYETMAGAGVPFSANGRPLASGIRSSSQPAAKRQKLNPADAPNPVVFVATKDTRALRKALTHLEMRRAARRPNLPLKVKPTLIAVRPPVPLPAPSHPASTNEPIVLED

Source: paper PMC4072508, “Genome-Wide Prediction and Validation of Peptides That Bind Human Prosurvival Bcl-2 Proteins” (PLoS Computational Biology, 2014)
